Our source for the EC50 (read off the curve), IC50 (read off the curve) and percent monomeric values is patent US20210155699A1.

For one experiment, the target named is purified EGFr (Sigma) (UniProt P00533). Nature of the experiment: ELISA on coated purified EGFr (50 ng/well), without and with polyclonal human IgG (IVIG), both curves in the same bundle. On the technique in general: ELISA stands for enzyme-linked immunosorbent assay.
Another experiment addresses EGFr in A431 cells (UniProt P00533).
The next experiment addresses 2F8-HG-L236V. Nature of the experiment: non-covalent nano-ESI MS, 0.01-10 uM; self-dimerisation (FIG. 6).
The target of another experiment is 2F8-HG-Y275A. Described as above.
A further experiment has as its target 2F8-HG-F273A. The experiment is described as above.

2F8-HG-R277K (antibody) yielded a half-maximal effective concentration (EC50 (read off the curve)) with purified EGFr (Sigma) of 0.08 µg/mL. For 2F8-HG-R277A (antibody), the IC50 (read off the curve) in the experiment with EGFr in A431 cells was 3 nM. The molecule further came in with an EC50 (read off the curve) with purified EGFr (Sigma) of 0.08 µg/mL. Molecule 2F8-HG-L236V (antibody) displayed a percent monomeric at low concentrations with 2F8-HG-L236V of 100%. 2F8-HG-Y275A (antibody): the percent monomeric at low concentrations with 2F8-HG-Y275A amounted to 100%.

B1: 2F8-HG-F273L (antibody, part only; not given: anti-EGFr VH and light chain, part only)
heavy, part: ASTKGPSVFPLAPCSRSTSESTAALGCLVKDYFPEPVTVSWNSGALTSGVHTFPAVLQSSGLYSLSSVVTVPSSSLGTKTYTCNVDHKPSNTKVDKRVAPEFLGGPSVFLFPPKPKDTLMISRTPEVTCVVVDVSQEDPEVQFNWYVDGVEVHNAKTKPREEQFNSTYRVVSVLTVLHQDWLNGKEYKCKVSNKGLPSSIEKTISKAKGQPREPQVYTLPPSQEEMTKNQVSLTCLVKGFYPSDIAVEWESNGQPENNYKTTPPVLDSDGSFLLYSRLTVDKSRWQEGNVFSCSVMHEALHNHYTQKSLSLSLGK
B1 returned a concentration giving a half-maximal response (EC50 (read off the curve)) with purified EGFr (Sigma) of 0.08 µg/mL.

B2: 2F8-HG-F273A (antibody, part only; not given: anti-EGFr VH and light chain, part only)
heavy, part: ASTKGPSVFPLAPCSRSTSESTAALGCLVKDYFPEPVTVSWNSGALTSGVHTFPAVLQSSGLYSLSSVVTVPSSSLGTKTYTCNVDHKPSNTKVDKRVAPEFLGGPSVFLFPPKPKDTLMISRTPEVTCVVVDVSQEDPEVQFNWYVDGVEVHNAKTKPREEQFNSTYRVVSVLTVLHQDWLNGKEYKCKVSNKGLPSSIEKTISKAKGQPREPQVYTLPPSQEEMTKNQVSLTCLVKGFYPSDIAVEWESNGQPENNYKTTPPVLDSDGSFALYSRLTVDKSRWQEGNVFSCSVMHEALHNHYTQKSLSLSLGK
In the experiment with 2F8-HG-F273A, B2 showed a percent monomeric at low concentrations of 100%. In the experiment with purified EGFr (Sigma), this molecule returned an EC50 (read off the curve) of 0.08 µg/mL.

As usually defined, the EC50 (read off the curve) is the concentration giving half of the maximal effect. Lower therefore signals higher potency in that assay.
